Data reported in publication PMC5750214.

B1: AT1-YFP (wild type), P30556 R167N (protein)
chain: MILNSSTEDGIKRIQDDCPKAGRHNYIFVMIPTLYSIIFVVGIFGNSLVVIVIYFYMKLKTVASVFLLNLALADLCFLLTLPLWAVYTAMEYRWPFGNYLCKIASASVSFNLYASVFLLTCLSIDRYLAIVHPMKSRLRRTMLVAKVTCIIIWLLAGLASLPAIIHNNVFFIENTNITVCAFHYESQNSTLPIGLGLTKNILGFLFPFLIILTSYTLIWKALKKAYEIQKNKPRNDDIFKIIMAIVLFFFFSWIPHQIFTFLDVLIQLGIIRDCRIADIVDTAMPITICIAYFNNCLNPLFYGFLGKKFKRYFLQLLKYIPPKAKSHSNLSTKMSTLSYRPSDNVSSSTKKPAPCFEVE
B2: human angiotensin II type 1 (AT1) receptor, P30556 R167A (protein)
chain: MILNSSTEDGIKRIQDDCPKAGRHNYIFVMIPTLYSIIFVVGIFGNSLVVIVIYFYMKLKTVASVFLLNLALADLCFLLTLPLWAVYTAMEYRWPFGNYLCKIASASVSFNLYASVFLLTCLSIDRYLAIVHPMKSRLRRTMLVAKVTCIIIWLLAGLASLPAIIHANVFFIENTNITVCAFHYESQNSTLPIGLGLTKNILGFLFPFLIILTSYTLIWKALKKAYEIQKNKPRNDDIFKIIMAIVLFFFFSWIPHQIFTFLDVLIQLGIIRDCRIADIVDTAMPITICIAYFNNCLNPLFYGFLGKKFKRYFLQLLKYIPPKAKSHSNLSTKMSTLSYRPSDNVSSSTKKPAPCFEVE
B3: AT1-YFP (wild type), P30556 R167K (protein)
chain: MILNSSTEDGIKRIQDDCPKAGRHNYIFVMIPTLYSIIFVVGIFGNSLVVIVIYFYMKLKTVASVFLLNLALADLCFLLTLPLWAVYTAMEYRWPFGNYLCKIASASVSFNLYASVFLLTCLSIDRYLAIVHPMKSRLRRTMLVAKVTCIIIWLLAGLASLPAIIHKNVFFIENTNITVCAFHYESQNSTLPIGLGLTKNILGFLFPFLIILTSYTLIWKALKKAYEIQKNKPRNDDIFKIIMAIVLFFFFSWIPHQIFTFLDVLIQLGIIRDCRIADIVDTAMPITICIAYFNNCLNPLFYGFLGKKFKRYFLQLLKYIPPKAKSHSNLSTKMSTLSYRPSDNVSSSTKKPAPCFEVE
B4: AT1-YFP (wild type), P30556 C289S (protein)
chain: MILNSSTEDGIKRIQDDCPKAGRHNYIFVMIPTLYSIIFVVGIFGNSLVVIVIYFYMKLKTVASVFLLNLALADLCFLLTLPLWAVYTAMEYRWPFGNYLCKIASASVSFNLYASVFLLTCLSIDRYLAIVHPMKSRLRRTMLVAKVTCIIIWLLAGLASLPAIIHRNVFFIENTNITVCAFHYESQNSTLPIGLGLTKNILGFLFPFLIILTSYTLIWKALKKAYEIQKNKPRNDDIFKIIMAIVLFFFFSWIPHQIFTFLDVLIQLGIIRDCRIADIVDTAMPITISIAYFNNCLNPLFYGFLGKKFKRYFLQLLKYIPPKAKSHSNLSTKMSTLSYRPSDNVSSSTKKPAPCFEVE
B5: AT1-YFP (wild type), P30556 R167A (protein)
chain: MILNSSTEDGIKRIQDDCPKAGRHNYIFVMIPTLYSIIFVVGIFGNSLVVIVIYFYMKLKTVASVFLLNLALADLCFLLTLPLWAVYTAMEYRWPFGNYLCKIASASVSFNLYASVFLLTCLSIDRYLAIVHPMKSRLRRTMLVAKVTCIIIWLLAGLASLPAIIHANVFFIENTNITVCAFHYESQNSTLPIGLGLTKNILGFLFPFLIILTSYTLIWKALKKAYEIQKNKPRNDDIFKIIMAIVLFFFFSWIPHQIFTFLDVLIQLGIIRDCRIADIVDTAMPITICIAYFNNCLNPLFYGFLGKKFKRYFLQLLKYIPPKAKSHSNLSTKMSTLSYRPSDNVSSSTKKPAPCFEVE
B6: human angiotensin II type 1 (AT1) receptor, P30556 C289S (protein)
chain: MILNSSTEDGIKRIQDDCPKAGRHNYIFVMIPTLYSIIFVVGIFGNSLVVIVIYFYMKLKTVASVFLLNLALADLCFLLTLPLWAVYTAMEYRWPFGNYLCKIASASVSFNLYASVFLLTCLSIDRYLAIVHPMKSRLRRTMLVAKVTCIIIWLLAGLASLPAIIHRNVFFIENTNITVCAFHYESQNSTLPIGLGLTKNILGFLFPFLIILTSYTLIWKALKKAYEIQKNKPRNDDIFKIIMAIVLFFFFSWIPHQIFTFLDVLIQLGIIRDCRIADIVDTAMPITISIAYFNNCLNPLFYGFLGKKFKRYFLQLLKYIPPKAKSHSNLSTKMSTLSYRPSDNVSSSTKKPAPCFEVE

What was measured:
[1] = target: β-arrestin-2-RLuc, P32121; assay: BRET; details: chain shown with the change, HEK293A cells, read off a plot
[2] = target: β-arrestin-2-RLuc, P32121; assay: BRET; details: chain shown with the change, HEK293A cells, read off a plot; remark: listed apart in the source
[125I]-Angiotensin II = competitive radioligand binding assay; details: chain shown with the change, value read from the curve at the x tick, read off a plot
[3] = target: β-arrestin-2-RLuc, P32121; assay: BRET; details: chain shown with the change, HEK293A cells, read off a plot; remark: listed apart in the source
[4] = CTL (no stimulation), parent: est. 0.624
[5] = Hcy (100 μM), parent: est. 0.632
[6] = Ang II (1 μM), parent: est. 0.672
[7] = no stimulation (open bar, labelled WT in the key), parent: est. 0.624

Sequence of β-arrestin-2-RLuc, P32121 (P32121 whole entry): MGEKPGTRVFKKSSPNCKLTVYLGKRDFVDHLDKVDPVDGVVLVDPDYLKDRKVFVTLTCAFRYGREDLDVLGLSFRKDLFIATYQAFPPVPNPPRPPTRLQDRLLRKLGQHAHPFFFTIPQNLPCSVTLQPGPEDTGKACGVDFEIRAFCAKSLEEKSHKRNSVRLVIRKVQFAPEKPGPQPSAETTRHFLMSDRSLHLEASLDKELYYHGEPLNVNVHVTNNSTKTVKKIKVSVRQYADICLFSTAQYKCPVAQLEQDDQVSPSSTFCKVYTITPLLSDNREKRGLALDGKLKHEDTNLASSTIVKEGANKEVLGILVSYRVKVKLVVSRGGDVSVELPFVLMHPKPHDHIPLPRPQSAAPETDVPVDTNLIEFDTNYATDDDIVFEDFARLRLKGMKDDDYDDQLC

Row | Binder | response [1, 4] | response [1, 5] | response [2, 6] | response [2, 4] | further results
1 | B1 | 0.621 Δ net BRET | 0.62 Δ net BRET | 0.657 Δ net BRET | 0.621 Δ net BRET | –
2 | B2 | – | – | – | – | response (% specific binding) ([125I]-Angiotensin II; competing Hcy at log [Hcy] (M) = -2, parent: est. 34): 34; response (% specific binding) ([125I]-Angiotensin II; competing Hcy at log [Hcy] (M) = -4, parent: est. 45): 66; response (% specific binding) ([125I]-Angiotensin II; competing Hcy at log [Hcy] (M) = -6, parent: est. 98): 100
3 | B3 | 0.619 Δ net BRET | 0.618 Δ net BRET | 0.621 Δ net BRET | 0.618 Δ net BRET | –
4 | B4 | – | – | – | – | response [1, 6]: 0.69 Δ net BRET; response [1, 7]: 0.624 Δ net BRET; response [3, 5]: 0.623 Δ net BRET; response [3, 7]: 0.623 Δ net BRET
5 | B5 | 0.626 Δ net BRET | 0.622 Δ net BRET | 0.628 Δ net BRET | 0.629 Δ net BRET | –
6 | B6 | – | – | – | – | response (% specific binding) ([125I]-Angiotensin II; competing Hcy at log [Hcy] (M) = -2, parent: est. 33): 31; response (% specific binding) ([125I]-Angiotensin II; competing Hcy at log [Hcy] (M) = -4, parent: est. 46): 76; response (% specific binding) ([125I]-Angiotensin II; competing Hcy at log [Hcy] (M) = -6, parent: est. 97): 100
